{"source": "paper PMC8281802", "about": "“Bacterial Vipp1 and PspA are members of the ancient ESCRT-III membrane-remodeling superfamily” (Cell, 2021)", "key": {"[1]": {"molecular_target": "the molecule itself", "test": "cryo-EM structure; 35 μM Vipp1 mixed with pre-formed rat Dynamin 1 filaments (to keep the ice thick) and vitrified; rings of C11 to C17 symmetry reconstructed"}, "[2]": {"molecular_target": "the molecule itself", "test": "cross-linking; cysteine cross-linking: 5 μM protein in 25 mM Tris-HCl pH 8.4, 50 mM NaCl with CuP or 5 μM MTS-4, 1 h at room temperature; rescue with 10 mM DTT; SDS-PAGE"}, "[3]": {"molecular_target": "the molecule itself", "test": "SEC + other: negative stain EM; filament assembly assay: Sephacryl 16/60 S500 gel filtration in 25 mM Tris-HCl pH 8.4, 50 mM NaCl; void volume, peak 1 and peak 2 analysed by SDS-PAGE and negative stain EM"}}, "note": "Where “and” joins values, the source holds several entries; their conditions need not be identical. Equal entries are not always repeated."}
{"protein": "Vipp1/IM30 from Nostoc punctiforme, full-length (amino acids 1–258) (natural protein, UniProt B2J6D9 1-258, looked up, Vipp1/IM30, Nostoc punctiforme, UniProt B2J6D9, amino acids 1-258, 28.7 kDa; His6 sits on the MBP moiety and leaves with it on TEV cleavage; also called native Vipp1; WT; not shown: MBP, N-terminal, cleaved; His6, N-terminal, cleaved) MGLFDRIKRVVSSNLNDLVNKAEDPEKMLEQAILEMQEDLVQLRQGVAQAIAAQKRSEKQYNDAQNEINKWQRNAQLALQKGDENLARQALERKKTYTDTSAALKASLDTQSTQVETLKRNLIQLESKISEAKTKKEMLKARITTAKAQEQLQGMVRGMNTSSAMSAFERMEEKVLMQESRAQALGELAGADLETQFAQLEGGSDVDDELAALKAQMLPPATPVTQAQLPPQQETTPAKSNEVVDAELDSLRKQLDQL", "values": [{"measurement": "stoichiometry N", "setting": "[1]", "value": "84 subunits and 55 subunits to 119 subunits (2×)"}]}
{"protein": "Vipp1_(L86C/L193C) (natural protein, Nostoc punctiforme, UniProt B2J6D9 1-258, looked up, Vipp1/IM30, Nostoc punctiforme, UniProt B2J6D9, with the cysteine pair L86C and L193C; Plasmid pOPTM/Vipp1_(L86C/L193C); The legend notes some uncleaved MBP-Vipp1 in the gel; also called L193C and L86C mutants; not shown: MBP, N-terminal, cleaved; His6, N-terminal, cleaved) MGLFDRIKRVVSSNLNDLVNKAEDPEKMLEQAILEMQEDLVQLRQGVAQAIAAQKRSEKQYNDAQNEINKWQRNAQLALQKGDENCARQALERKKTYTDTSAALKASLDTQSTQVETLKRNLIQLESKISEAKTKKEMLKARITTAKAQEQLQGMVRGMNTSSAMSAFERMEEKVLMQESRAQALGELAGADCETQFAQLEGGSDVDDELAALKAQMLPPATPVTQAQLPPQQETTPAKSNEVVDAELDSLRKQLDQL", "values": [{"measurement": "binding result", "setting": "[2]", "value": "binds"}]}
{"protein": "Vipp1Δα6_(1–219) (domain or fragment, Nostoc punctiforme, UniProt B2J6D9 1-219, looked up, Vipp1/IM30, Nostoc punctiforme, UniProt B2J6D9, residues 1-219; lacks the C-terminal extension with helix α6 (aa 220-258); Plasmid pOPTM/Vipp1Δα6_(1-219); not shown: MBP, N-terminal, cleaved; His6, N-terminal, cleaved) MGLFDRIKRVVSSNLNDLVNKAEDPEKMLEQAILEMQEDLVQLRQGVAQAIAAQKRSEKQYNDAQNEINKWQRNAQLALQKGDENLARQALERKKTYTDTSAALKASLDTQSTQVETLKRNLIQLESKISEAKTKKEMLKARITTAKAQEQLQGMVRGMNTSSAMSAFERMEEKVLMQESRAQALGELAGADLETQFAQLEGGSDVDDELAALKAQMLP", "values": [{"measurement": "binding result", "setting": "[3]", "value": "binds"}]}
